Data published in paper PMC5339894, “G196 epitope tag system: a novel monoclonal antibody, G196, recognizes the small, soluble peptide DLVPR with high affinity” (Scientific Reports, 2017).
Entries after “also recorded” stand apart in the source; their conditions may differ.

What was measured:
[1] = system: FLAG-HA-Emerald GFP tagged with C-terminal G196-tag (FHG-G196); assay: Western blot analysis of HeLa cell extracts; type: cell-based, human
Excerpt: (§1) Short peptides and paired mAbs specific for the sequences of interest are powerful and irreplaceable tools for scientific research. To ascertain the possible versatility of G196-tag as a versatile fusion tag, we generated several human and yeast expression constructs in which the G196-tag was fused to reporter proteins. First, we expressed FLAG- and HA-tagged Emerald GFP (hereafter abbreviated FHG) as a reporter protein, C-terminally fused with a G196-tag (6P12, SDLVPRGSP) in HeLa cells.
(§2) Figure 5 Application of the G196 epitope tag system for scientific research. (a) Western blot and immunoprecipitation (IP) analysis of FLAG-HA-Emerald GFP (FHG) tagged with C-terminal G196-tag in HeLa cells using mAb G196. HeLa cells were transfected with FHG/pcDNA3 or FHG-G196/pcDNA3. After incubation for two days, the cells were lysed and subjected to Western blotting with anti-FLAG (M2) or G196 mAbs (left panel). These lysates were immunoprecipitated with anti-FLAG (M2) (lanes 7, 8) or G196 (lanes 9, 10) mAbs and subjected to Western blotting with anti-FLAG polyclonal antibody (right panel). (b) Immunofluorescence of GFP- and G196-tagged nuclear protein in HeLa cells using mAb G196. […] Protein extracts were separated by SDS-PAGE and detected with mAb G196 and anti-GFP polyclonal antibody (left panel). […] Asterisk indicates non-specific band also detected using the second Ab alone. […]

Atf1-G196-GFP = assay: immunofluorescence of fission yeast cells; type: cell-based
Method: Yeast cells exponentially growing in YES medium at 30 °C were fixed with 3% formaldehyde and incubated at 18 °C for 30 min. After quenching with 250 mM glycine, the cells were washed with PBSEMS (PBS buffer with 1 mM EGTA, 1 mM MgSO4 and 1.2 M sorbitol), resuspended in PBSEMS containing 5 mg/mL Zymolyase 20T (07663-91, Nacalai Tesque) and 0.1% 2-mercaptoethanol, and incubated at 37 °C for 1 h. The cells were washed three times with PBSEMS and resuspended in PBSEMT (PBS with 1 mM EGTA, 1 mM MgSO4 and 1% Triton X-100) and incubated at room temperature for 30 sec. After washing three times with PBSEM (PBS with 1 mM EGTA and 1 mM MgSO4), the cells were incubated in PBSEMALM (PBS with 1 mM EGTA, 1 mM MgSO4, 0.1% sodium azide, 0.1 M L-lysine and 5% skim milk) for 30 min. The cells were resuspended in PBSEMALM containing G196 mAb (1:1000) and anti-GFP rabbit polyclonal antibody (1:1000). After overnight incubation at room temperature, cells were washed with PBSEMALM three times, then resuspended in PBSEMALM containing anti-mouse antibody conjugated with Alexa 594 (1:100) and anti-rabbit conjugated with Alexa 488 (1:100). After one-hour incubation, the cells were washed with PBSEMAL containing 5% skim milk three times and resuspended in PBS containing 0.1% sodium azide. The cell suspension was mixed with an equal amount of 1% low-melting point agarose with DAPI on glass plates.

[2] = system: FLAG-HA-Emerald GFP tagged with C-terminal G196-tag (FHG-G196); assay: immunoprecipitation (IP) from HeLa cell extracts; type: cell-based, human
Excerpt: as §1
Figure 5 Application of the G196 epitope tag system for scientific research. (a) Western blot and immunoprecipitation (IP) analysis of FLAG-HA-Emerald GFP (FHG) tagged with C-terminal G196-tag in HeLa cells using mAb G196. HeLa cells were transfected with FHG/pcDNA3 or FHG-G196/pcDNA3. After incubation for two days, the cells were lysed and subjected to Western blotting with anti-FLAG (M2) or G196 mAbs (left panel). These lysates were immunoprecipitated with anti-FLAG (M2) (lanes 7, 8) or G196 (lanes 9, 10) mAbs and subjected to Western blotting with anti-FLAG polyclonal antibody (right panel). (b) Immunofluorescence of GFP- and G196-tagged nuclear protein in HeLa cells using mAb G196. HeLa cells were transfected with FHG-G196-NAC1/pcDNA3. After incubation for two days, the cells were fixed and incubated with mAb G196 and anti-GFP polyclonal Ab, then stained with Alexa-594 anti-mouse and Alexa-488 anti-rabbit secondary antibodies. (c) Western blot and chromatin immunoprecipitation (ChIP) analysis of Atf1-G196-GFP in fission yeast using mAb G196. A DNA fragment containing the transcription factor atf1 gene fused with the G196 epitope-GFP gene was replaced with the genomic atf1 gene. Protein extracts were separated by SDS-PAGE and detected with mAb G196 and anti-GFP polyclonal antibody (left panel). GFP-Iws1 expressing cells were used as a negative control. Asterisk indicates non-specific band also detected using the second Ab alone. Schematic representation of the tdh1 locus (right upper panel). The promoter of the tdh1 gene harbors a CRE consensus site. […]

[3] = system: cellular proteins of HeLa cells; assay: Western blot cross-reaction with cellular proteins; type: cell-based, human; conditions: HeLa cell extracts, Western blot (lanes 3, 4)
Excerpt: as §1, §2

B1: mAb G196: mouse mAb (IgG1) raised against GST protein bacterially expressed using the pGEX-2T vector (antibody, V domains shown)
VH: QVKLQESGAELVKPGASVKLSCKASGYTFTNYWMHWVKLRPGQGFEWIGEINPSNGGSNYNEKFKRKATLTVDKSSSTAYMQLSSLTSEDSAVFYCSIWDSYFDYWGQGTTLTVSS
VL: NIVMTQSPKSMSMSVGERVTLTCKASENVVTYVSWYQQKPEQSPKLLIYGASNRYTGVPDRFTGSGSATDFTLTISSVQAEDLADYHCGQGYSYPYTFGGGTKLEIK
[1]; HeLa cells transfected with FHG (lane 3)
  detection of FHG (without G196-tag) by Western blot: not detected
[1]; HeLa cells transfected with FHG-G196, two days (lanes 2, 4)
  detection of FHG-G196 by Western blot: detected as a single band; also recorded: as a single band at the proper molecular weight
Atf1-G196-GFP; G196- and GFP-tagged Atf1, mAb 1:1000
  immunofluorescence recognition of Atf1: recognized G196- and GFP-tagged Atf1
Atf1-G196-GFP; versus polyclonal anti-GFP antibody
  immunofluorescence of Atf1 compared with anti-GFP polyclonal: comparable to that of a polyclonal anti-GFP antibody
[2]; HeLa cell extracts, FHG (lane 9)
  immunoprecipitation of reporter lacking G196-tag: did not immunoprecipitate reporter protein lacking the G196-tag
[2]; HeLa cell extracts, Western blot with anti-FLAG polyclonal antibody (lane 10)
  immunoprecipitation of FHG-G196: efficiently immunoprecipited reporter protein
[2]; lane 10 versus lane 8
  immunoprecipitation of FHG-G196 compared with anti-FLAG: comparable to that of FLAG immunoprecipitates
[3]
  cross-reaction with cellular proteins: did not cross-react with cellular proteins; also recorded: did not (cross-)react with cellular proteins
